Key:
[1] = molecular target: Andes virus (ANDV) envelope glycoprotein Gc, wild type (Andes virus) (UniProt Q9E006); experiment: native gel or EMSA
[2] = molecular target: Andes virus (ANDV) envelope glycoprotein Gc, wild type (Andes virus) (UniProt Q9E006); experiment: sucrose gradient sedimentation

Q: For “Andes virus (ANDV) envelope glycoprotein Gc, wild type (from UniProt Q9E006) (natural protein)”, which stoichiometry N [1] is on record?
A: 3

Q: What about the stoichiometry N [2] of the same substance?
A: 3

— article PMC6609335
